Reference: the supplement of paper PMC9170038

Tested on: MS2 coat protein
Test: apparent KD of MS2 coat protein; designed switch direction (-1 OFF switch, 1 ON switch): 1; higher = weaker reporter binding
Procedure, shortened: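 The buffer was Tris-HCl pH 7.5 with KCl, MgCl2, BSA, DTT, tRNA and Tween-20. In it, SNAP-549-labelled MS2 coat protein was titrated in doubling steps from 0.7 or 1.5 nM to 3 µM over chip-bound RNA switches transcribed by stalled E. coli RNA polymerase on Illumina chips. Apparent KD is the per-design median over clusters of curve fits to normalised fluorescence.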

[1] = input ligand: microRNA oligo, concentration not stated
[2] = Eterna round: R95, input ligand: FMN 200 uM
[3] = Eterna round: R95, input ligand: microRNA oligo, concentration not stated
[4] = Eterna round: R95, input ligand: none

Sequence: GGUAUGGACACAGGAUAUGCUUACGAAACGUAAGCAGAAGGGUGAACAUGAGGAUCACCCAUGUACGUACCAGGGCGUGAGCCC [JL SSNG1 1.76] (Eterna round: R96, puzzle: Same State NG 1)
- apparent KD of MS2 coat protein (input ligand: FMN 200 uM): 440 nM
- apparent KD of MS2 coat protein [1]: 157 nM
- apparent KD of MS2 coat protein (input ligand: none): 92.4 nM

Sequence: UACAAUCUAUCUGAGGAUAUCAUGAUUUUAACAUGAGGAUCACCCAUGUGCAGGAAAACUGCAUAUGAGAAGGCAGAUAGAUUGU [salish99_ss2_r3_070] (puzzle: Same State 2)
- apparent KD of MS2 coat protein [2]: 199 nM
- apparent KD of MS2 coat protein [3]: 69.7 nM
- apparent KD of MS2 coat protein [4]: 178 nM

Sequence: AUUGCUAGCACAGGAUAUCAUGCGAAAAUUGCGUGAGAAGGGUGGACUCUGUCAUUCACGGAGGACAUGAGGAUCACCCAUGUC [SameState NG1 #80] (Eterna round: R96, puzzle: Same State NG 1)
- apparent KD of MS2 coat protein (input ligand: FMN 200 uM): 193 nM
- apparent KD of MS2 coat protein [1]: 31.9 nM
- apparent KD of MS2 coat protein (input ligand: none): 62.3 nM

Sequence: UAUCGUUUGAUAGGAUAUCGCUAUACAUGAGGAUCACCCAUGUUUACCACGCUGGUUUUUCAUACCGAGAAGGAUUCUGAUGAA [salish99_SSNG02_r04_004] (Eterna round: R96, puzzle: Same State NG 2)
- apparent KD of MS2 coat protein (input ligand: FMN 200 uM): 29 nM
- apparent KD of MS2 coat protein [1]: 19.6 nM
- apparent KD of MS2 coat protein (input ligand: none): 32.5 nM

Sequence: AUUACGAGCGUAGGAUAUGGGAAAGGAAGUGUACCAGAAGGACGAAUACAGCGUCCGGACAUGAGGAUCACCCAUGUAGGACGC [PowerStrip SSNG 1.19] (Eterna round: R96, puzzle: Same State NG 1)
- apparent KD of MS2 coat protein (input ligand: FMN 200 uM): 11.5 nM
- apparent KD of MS2 coat protein [1]: 21.8 nM
- apparent KD of MS2 coat protein (input ligand: none): 26.1 nM

Sequence: AAGAAAGACGCAGGAUAUCAGUGCAGACCGCACUGAGAAGGGUGAGACAUGAGGAUCACCCAUGUAACACGACAAAACGUCGUG [Anritiat] (Eterna round: R96, puzzle: Same State NG 1)
- apparent KD of MS2 coat protein (input ligand: FMN 200 uM): 111 nM
- apparent KD of MS2 coat protein [1]: 118 nM
- apparent KD of MS2 coat protein (input ligand: none): 13.9 nM

Sequence: GUUUGAUGGUGAGGAUAUGUACAAAGAUAGGGUAUAGAAGGCAUGCGCCGGGAAACCGCGGUACAUGAGGAUCACCCAUGUGUC [Eternabot solution 36] (Eterna round: R96, puzzle: Same State NG 1)
- apparent KD of MS2 coat protein (input ligand: FMN 200 uM): 207 nM
- apparent KD of MS2 coat protein [1]: 54.9 nM
- apparent KD of MS2 coat protein (input ligand: none): 121 nM

Sequence: GUAAAACAUGAGGAUCACCCAUGUAAUAAUAUGGGAGGAUAUCAGAUUUAAUUUAAUUUAUGAGAAGGCCUAAAGU [Mat - Same State 1 - Mod of Eli - D63] (puzzle: Same State 1)
- apparent KD of MS2 coat protein [2]: 94.4 nM
- apparent KD of MS2 coat protein [3]: 16.4 nM
- apparent KD of MS2 coat protein [4]: 628 nM

Sequence: UACAAUCUAUCUGAGGAUAUCAUGAAUUUAACAUGAGGAUCACCCAUGUGCAGGAAAACUGCAUAUGAGAAGGCAGAUAGAUUGU [salish99_ss2_r3_061] (puzzle: Same State 2)
- apparent KD of MS2 coat protein [2]: 71.3 nM
- apparent KD of MS2 coat protein [3]: 28 nM
- apparent KD of MS2 coat protein [4]: 94.1 nM

Sequence: AUAACAAUGGCAGGAUAUGGGAUUGGAAGUGUUCCAGAAGGGCCAUAACGGCGAUGGACAUGAGGAUCACCCAUGUCUUAGCCU [MOD2 Powerstrip SSNG 1.4] (Eterna round: R96, puzzle: Same State NG 1)
- apparent KD of MS2 coat protein (input ligand: FMN 200 uM): 14.3 nM
- apparent KD of MS2 coat protein [1]: 6.26 nM
- apparent KD of MS2 coat protein (input ligand: none): 15 nM

Sequence: GCUCGACGUAUUGUCUACAUGAGGAUCACCCAUGUAGGUGCGAAGGAUAUCUACGUGUUUCAUGUAGAGAAGGUCGUGUCGAGC [SameState NG3 #93] (Eterna round: R96, puzzle: Same State NG 3)
- apparent KD of MS2 coat protein (input ligand: FMN 200 uM): 36.3 nM
- apparent KD of MS2 coat protein [1]: 35.1 nM
- apparent KD of MS2 coat protein (input ligand: none): 46.4 nM

Sequence: AACAGUCGGCGAGGAUAUGGACGUACGAACUUACCCGUGCGGCUCACAUGAGGAUCACCCAUGUUCUAGAAGGCGCCACUGAAA [Atbeon] (Eterna round: R96, puzzle: Same State NG 2)
- apparent KD of MS2 coat protein (input ligand: FMN 200 uM): 12.2 nM
- apparent KD of MS2 coat protein [1]: 63.4 nM
- apparent KD of MS2 coat protein (input ligand: none): 88.8 nM

Sequence: UUUAGAUUCAGAGGAUAUUGAUGUUGUAUUUUACAAGAAGGCUGAUUGGUUUGAAUUGUUUUUUAACAUGAGGAUCACCCAUGU [JR_SSNG1_Sub011] (Eterna round: R96, puzzle: Same State NG 1)
- apparent KD of MS2 coat protein [1]: 19.2 nM

Sequence: GCGAGCGUACUUGCUACAUGAGGAUCACCCAUGUUUAUUGGACAGGAUAUGGUACCGUUUCGGUACCAGAAGGGUUCAUCAUGU [JL SSNG3 3.70] (Eterna round: R96, puzzle: Same State NG 3)
- apparent KD of MS2 coat protein (input ligand: FMN 200 uM): 294 nM
- apparent KD of MS2 coat protein [1]: 471 nM
- apparent KD of MS2 coat protein (input ligand: none): 547 nM

Sequence: GCUUGCCGCACAGGAUAUGGGUGCCUGUACAUGAGGAUCACCCAUGUUAAGGGACGGAUUACGAACCAGAAGGGUGAGGCGGGC [Lereatle] (Eterna round: R96, puzzle: Same State NG 2)
- apparent KD of MS2 coat protein (input ligand: FMN 200 uM): 59.4 nM
- apparent KD of MS2 coat protein [1]: 119 nM
- apparent KD of MS2 coat protein (input ligand: none): 473 nM

Sequence: UGGUACAUGGGAGGAUAUCUCGUAGAGACAUGAGGAUCACCCAUGUAGAUGGCCGGUAACCGGGAAGAGAAGGCCCAUGUACCU [JL SSNG1 3.66] (Eterna round: R96, puzzle: Same State NG 2)
- apparent KD of MS2 coat protein (input ligand: FMN 200 uM): 203 nM
- apparent KD of MS2 coat protein [1]: 56.1 nM
- apparent KD of MS2 coat protein (input ligand: none): 82.6 nM

Sequence: UUAAUUUACUGAGGAUAUCGUGUCGACUGAGUUGACAUGAGGAUCACCCAUGUGAGAAGUGGUAUCGAGAAGGCAGUUUUCUUA [JR_SSNG2_Sub025] (Eterna round: R96, puzzle: Same State NG 2)
- apparent KD of MS2 coat protein (input ligand: FMN 200 uM): 17.8 nM
- apparent KD of MS2 coat protein [1]: 82 nM
- apparent KD of MS2 coat protein (input ligand: none): 102 nM

Sequence: GUGGUGGGUUGAGGAUAUUGGUUGCAUAUGUUUAACAUGAGGAUCACCCAUGUGGGUUGCGGUUUCGAGAAGGUAGGUUGCUGG [salish99_SSNG2_r04_045bad] (Eterna round: R96, puzzle: Same State NG 2)
- apparent KD of MS2 coat protein (input ligand: FMN 200 uM): 112 nM
- apparent KD of MS2 coat protein [1]: 106 nM
- apparent KD of MS2 coat protein (input ligand: none): 112 nM

Sequence: UUUGAAUUGCAAGGAUAUCUUAUUUAGAUUUUAAGAGAAGGUGCUUUAUAGUUACAUGAGGAUCACCCAUGUAUUUCUUUUUAU [JR_SSNG1_Sub062] (Eterna round: R96, puzzle: Same State NG 1)
- apparent KD of MS2 coat protein [1]: 18.5 nM

Sequence: UAUGACUUACAAGGAUAUUAAUGACAUGAGGAUCACCCAUGUGGCUGUGUGUGUUAGAUAAGCUUUAAGAAGGUGUGCGUGUCU [JR_SSNG2_Sub096] (Eterna round: R96, puzzle: Same State NG 2)
- apparent KD of MS2 coat protein (input ligand: FMN 200 uM): 361 nM
- apparent KD of MS2 coat protein [1]: 288 nM
- apparent KD of MS2 coat protein (input ligand: none): 386 nM

Sequence: ACAUGAGAGAUAGGAUAUCUUGUACCUACAUGUGACAUGAGGAUCACCCAUGUGGUAAGUAUGAGGGAGAAGGAUCAGAUAUGU [Equivalence 42 - Jieux - Same State NG 2] (Eterna round: R96, puzzle: Same State NG 2)
- apparent KD of MS2 coat protein (input ligand: FMN 200 uM): 29.6 nM
- apparent KD of MS2 coat protein [1]: 26.4 nM
- apparent KD of MS2 coat protein (input ligand: none): 45.2 nM

Sequence: UGGCUCAGACGAGGAUAUAUGUCUCGAGCUUCGGCUCGAGACAUGAGGAUCACCCAUGUAAUAACAUAGAAGGCGUCUGAGCCA [SSNG2/1-A2] (Eterna round: R96, puzzle: Same State NG 2)
- apparent KD of MS2 coat protein (input ligand: FMN 200 uM): 22.1 nM
- apparent KD of MS2 coat protein [1]: 25.2 nM
- apparent KD of MS2 coat protein (input ligand: none): 37.2 nM

Sequence: GAAUAGUUGAGAGGAUAUGGAUUAUUGUAGGAUCCAGAAGGUUUUAACAUGAGGAUCACCCAUGUAGGACUAUAUAUGUGAAUA [Parity 97 - Jieux - Same State NG 1] (Eterna round: R96, puzzle: Same State NG 1)
- apparent KD of MS2 coat protein (input ligand: FMN 200 uM): 13.1 nM
- apparent KD of MS2 coat protein [1]: 11.7 nM
- apparent KD of MS2 coat protein (input ligand: none): 19.5 nM

Sequence: GAGUGGUGGAGAGGAUAUACAUUGUUAUUCACUGUAGAAGGUUCUAACAUGAGGAUCACCCAUGUAGGACUAUUCCUGUGUUUU [Parity 57 - Jieux - Same State NG 1] (Eterna round: R96, puzzle: Same State NG 1)
- apparent KD of MS2 coat protein [1]: 9.37 nM

Sequence: GAGCCAGUCCGAGGAUAUUCAUAUACAUGAGGAUCACCCAUGUAGGCUCAGAAAAGAGAGCCUUGGGAGAAGGCGGACUGGCUC [Xeonanisa<<4] (Eterna round: R96, puzzle: Same State NG 2)
- apparent KD of MS2 coat protein (input ligand: FMN 200 uM): 8.38 nM
- apparent KD of MS2 coat protein [1]: 27.3 nM
- apparent KD of MS2 coat protein (input ligand: none): 50.8 nM

Sequence: AGUCCAGCCUGAGCUGGACAAAAGCAUGUACAUGAGGAUCACCCAUGUUCAUGUACAAGCUUUUUGCUCGUCUUUAA [salish99_208a_r3_096x] (Eterna round: R96, puzzle: Sensor for hsa-mir-208a)
- apparent KD of MS2 coat protein (input ligand: FMN 200 uM): 559 nM
- apparent KD of MS2 coat protein [1]: 14.5 nM
- apparent KD of MS2 coat protein (input ligand: none): 577 nM

Sequence: ACAUGAAAUUCAGGAUAUUUUGUACCUACAUGUGACAUGAGGAUCACCCAUGUGGUAAGUAUAAGAGAGAAGGGAAAGAUAUGU [Equivalence 5 - Jieux - Same State NG 2] (Eterna round: R96, puzzle: Same State NG 2)
- apparent KD of MS2 coat protein (input ligand: FMN 200 uM): 29.1 nM
- apparent KD of MS2 coat protein [1]: 29.9 nM
- apparent KD of MS2 coat protein (input ligand: none): 38.5 nM

Sequence: UUUAUAUUCAGAGGAUAUUGAUGUUGUAUUUUACAAGAAGGCUGAUUGUUUUGUAAUGUUAUUAUACAUGAGGAUCACCCAUGU [JR_SSNG1_Sub014] (Eterna round: R96, puzzle: Same State NG 1)
- apparent KD of MS2 coat protein [1]: 17.3 nM

Sequence: GCUCGACGUACGGCCUACAUGAGGAUCACCCAUGUGACUGGGCAGGAUAUCUAAAUGCAGAAUGUAGAGAAGGGCCCGUCGAGC [SameState NG3 #50] (Eterna round: R96, puzzle: Same State NG 3)
- apparent KD of MS2 coat protein (input ligand: FMN 200 uM): 323 nM
- apparent KD of MS2 coat protein [1]: 35.9 nM
- apparent KD of MS2 coat protein (input ligand: none): 384 nM

Sequence: AUUAUGUAUGCAGGAUAUGAUUAACAUGAGGAUCACCCAUGUGGUGUUGUGAGUAAGGAGAGUGAUCAGAAGGGCAUUUUUUUU [JMF's solution 64] (Eterna round: R96, puzzle: Same State NG 2)
- apparent KD of MS2 coat protein (input ligand: FMN 200 uM): 555 nM
- apparent KD of MS2 coat protein [1]: 333 nM
- apparent KD of MS2 coat protein (input ligand: none): 381 nM
